In publication PMC4917968:

Experiments:
[1] = target: Full-length mouse eRF1 (mouse) (UniProt Q8BWY3); assay: ITC; competition: RNase H (WT or mutant) titrated to the preformed eRF1/eRF3 complex; apparent Kd; 22 °C, 20 mM HEPES pH 7.5, 150 mM NaCl, 5 mM TCEP; single-site model
[2] = target: Full-length mouse eRF1 (mouse) (UniProt Q8BWY3); assay: ITC; 22 °C, MicroCal VP-ITC; 20 mM HEPES pH 7.5, 150 mM NaCl, 5 mM TCEP; injectant protein 220-300 μM into a cell with 13-20 μM protein; single-site model

Row | Substance | Kd [1] | Kd [2] | fold reduction of binding against WT RNase H [2]
1 | Isolated RNase H domain of MoMLV RT (aa 500–671) (domain or fragment) | 5.6 µM | 4.18 µM | 
2 | RNase H mutant F588A (isolated RNase H domain of MoMLV RT) (domain or fragment) |  |  | 10 fold
